Test system: C57Bl/6J mice
Experiment: Analysis of geropathological lesions in tissue sections
Type: in vivo, mouse
Conditions: at 110 weeks; heart, lung, liver, spleen, kidney, skeletal muscle; vs IgG control antibody
Description: C57Bl/6J mice are randomised to receive either X203 or IgG control antibody at a dose of 40m/kg via IP injection every 3 weeks from age 55 weeks to age 110 weeks.
At 110 weeks, mice are euthanized, sections are prepared from heart, lung, liver, spleen, kidney and skeletal muscle tissues, subjected to hematoxylin and eosin or Masson's trichrome staining and analysed by light microscopy. Tissue sections are evaluated for ageing-associated lesions as described in Snider et al., Geroscience (2019) 40: 97-103 and Snyder et al., Geroscience (2019) 41: 455-465 (both hereby incorporated by reference in their entirety). Analysis is performed by a veterinary pathologist blinded to treatment group.

B1: X203: mouse anti-mouse IL-11 IgG antagonist antibody; VH SEQ ID NO:22, VL SEQ ID NO:23 (antibody, V domains shown)
VH: EVQLQQSGPELVKPGASVKIPCKASGYTFTDYNMDWVKQSHGKSLEWIGDINPHNGGPIYNQKFTGKATLTVDKSSSTAYMELRSLTSEDTAVYYCARGELGHWYFDVWGTGTTVTVSS
VL: DIVLTQSPASLAVSLGQRATISCRASKSVSTSGYSYIHWYQQKPGQPPKLLIYLASNLDSGVPARFSGSGSGTDFTLNIHPVEEEDAATYYCQHSRDLPPTFGGGTKLEIK
  geropathology lesions: fewer, smaller and/or less developed

— patent publication US20230399393A1, “METHODS TO EXTEND HEALTH-SPAN AND TREAT AGE-RELATED DISEASES” (National University of Singapore, priority 2020, published 2023)
